The target of series [1] is T1, collagen type I (rat tail) (Rattus norvegicus, UniProt P02454+P02466).
T1 construct: collagen type I (rat tail; Corning, UK); purchased Corning, UK; host or cells: rat tail (tissue-derived)
In words: Collagen fibrillogenesis turbidity assay. The series is classed as biochemical. The protocol:
Collagen fibrillogenesis: For the dose response curves, 75 µl of PBS was added to each well of a 96 well plate kept on ice. Varying hrDecorin doses were prepared by adding 400 μg/ml of hrDecorin to the first well and subsequently serial diluting (2-fold dilution) across the plate. Following dilution, a further 150 μl of PBS buffer was added to each well. Then, 75 μl of collagen type I (rat tail; Corning, UK) (800 μg/ml) was added to each well and incubated for 2 hours at 37° C. Subsequent absorbance readings were taken using a 405 nm plate reader. Each assay consisted of duplicate blank controls, and triplicate standard dilutions followed by triplicate sample dilutions. Kinetics of fibril formation were determined using a similar setup as the dose response, without serial dilution; incubating the samples within the plate reader, and taking data points every 2 minutes.
• Prepare diluent and reaction buffers by mixing sodium phosphate and sodium chloride and adjusting the pH to 7.4. • Add sample (Gellan fluid gel +Galacorin™ Galacorin only and Gellan only) to a 96 well plate and serial dilute using diluent buffer across the rows of the plate. • On ice, prepare collagen by mixing with cold water to a concentration of 0.8 mg/ml. • Add collagen to all wells. • Add reaction buffer to all wells and mix. • Incubate at 37° C. for 2 hours. • Read using a plate reader at 405 nm

For a further series, the system named is fibrin gel. In words: Matrix breakdown assay (fibrin gel). The note with it: trans-well above fibrin gel (8.5 mg/ml), 60° C. The series is classed as biochemical. The protocol: […] • Add 0.9 ml of gel to an Eppendorf. • To each gel add 0.1 ml of active in PBS. • Mix well using a vortex mixer. • Refrigerate for 24 hours before testing. • 0.5 ml of fibrin gel (8.5 mg/ml) was formed in the wells of a 24 well plate. • 0.5 ml of PBS was added to each well. • 0.1 ml of gel with active was added to a trans-well insert and placed above the fibrin gel. • Samples were incubated at 60° C. to activate the proteinase K. • Images were taken at various timepoints and compared to the control fibrin gel (pbs only) and fibrin gel with proteinase k added without a fluid gel carrier.

T1 sequence (P02454 152-1207 limits assumed): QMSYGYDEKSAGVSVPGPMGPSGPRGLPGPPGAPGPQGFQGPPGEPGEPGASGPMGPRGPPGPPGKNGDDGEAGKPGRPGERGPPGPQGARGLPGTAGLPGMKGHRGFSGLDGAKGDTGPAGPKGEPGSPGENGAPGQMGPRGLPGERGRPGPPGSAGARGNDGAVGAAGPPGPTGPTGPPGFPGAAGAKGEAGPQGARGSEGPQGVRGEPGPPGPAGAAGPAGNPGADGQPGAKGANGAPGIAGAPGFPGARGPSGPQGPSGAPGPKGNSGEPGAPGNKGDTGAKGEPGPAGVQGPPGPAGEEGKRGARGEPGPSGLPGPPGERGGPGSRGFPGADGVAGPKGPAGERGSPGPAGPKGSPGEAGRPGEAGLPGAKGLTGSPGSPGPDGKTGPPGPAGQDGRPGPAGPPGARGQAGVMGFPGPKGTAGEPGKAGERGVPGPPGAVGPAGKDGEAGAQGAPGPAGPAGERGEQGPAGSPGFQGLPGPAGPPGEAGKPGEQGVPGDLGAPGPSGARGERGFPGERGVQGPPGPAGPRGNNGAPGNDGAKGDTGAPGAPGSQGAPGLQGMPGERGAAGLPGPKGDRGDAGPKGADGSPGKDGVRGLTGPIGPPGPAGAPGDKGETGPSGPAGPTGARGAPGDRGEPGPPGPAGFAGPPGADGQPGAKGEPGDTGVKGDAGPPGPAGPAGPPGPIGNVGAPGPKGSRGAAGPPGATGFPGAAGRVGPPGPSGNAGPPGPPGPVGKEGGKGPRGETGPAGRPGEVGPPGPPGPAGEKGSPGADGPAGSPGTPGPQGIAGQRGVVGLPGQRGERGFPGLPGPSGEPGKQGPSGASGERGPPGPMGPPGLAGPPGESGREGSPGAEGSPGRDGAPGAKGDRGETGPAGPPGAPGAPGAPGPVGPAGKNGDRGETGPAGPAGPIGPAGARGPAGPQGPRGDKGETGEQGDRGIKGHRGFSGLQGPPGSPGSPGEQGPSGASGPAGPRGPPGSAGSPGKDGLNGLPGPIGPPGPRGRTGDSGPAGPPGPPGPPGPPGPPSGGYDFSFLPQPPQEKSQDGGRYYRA
T1 sequence (P02466 86-1125 limits assumed): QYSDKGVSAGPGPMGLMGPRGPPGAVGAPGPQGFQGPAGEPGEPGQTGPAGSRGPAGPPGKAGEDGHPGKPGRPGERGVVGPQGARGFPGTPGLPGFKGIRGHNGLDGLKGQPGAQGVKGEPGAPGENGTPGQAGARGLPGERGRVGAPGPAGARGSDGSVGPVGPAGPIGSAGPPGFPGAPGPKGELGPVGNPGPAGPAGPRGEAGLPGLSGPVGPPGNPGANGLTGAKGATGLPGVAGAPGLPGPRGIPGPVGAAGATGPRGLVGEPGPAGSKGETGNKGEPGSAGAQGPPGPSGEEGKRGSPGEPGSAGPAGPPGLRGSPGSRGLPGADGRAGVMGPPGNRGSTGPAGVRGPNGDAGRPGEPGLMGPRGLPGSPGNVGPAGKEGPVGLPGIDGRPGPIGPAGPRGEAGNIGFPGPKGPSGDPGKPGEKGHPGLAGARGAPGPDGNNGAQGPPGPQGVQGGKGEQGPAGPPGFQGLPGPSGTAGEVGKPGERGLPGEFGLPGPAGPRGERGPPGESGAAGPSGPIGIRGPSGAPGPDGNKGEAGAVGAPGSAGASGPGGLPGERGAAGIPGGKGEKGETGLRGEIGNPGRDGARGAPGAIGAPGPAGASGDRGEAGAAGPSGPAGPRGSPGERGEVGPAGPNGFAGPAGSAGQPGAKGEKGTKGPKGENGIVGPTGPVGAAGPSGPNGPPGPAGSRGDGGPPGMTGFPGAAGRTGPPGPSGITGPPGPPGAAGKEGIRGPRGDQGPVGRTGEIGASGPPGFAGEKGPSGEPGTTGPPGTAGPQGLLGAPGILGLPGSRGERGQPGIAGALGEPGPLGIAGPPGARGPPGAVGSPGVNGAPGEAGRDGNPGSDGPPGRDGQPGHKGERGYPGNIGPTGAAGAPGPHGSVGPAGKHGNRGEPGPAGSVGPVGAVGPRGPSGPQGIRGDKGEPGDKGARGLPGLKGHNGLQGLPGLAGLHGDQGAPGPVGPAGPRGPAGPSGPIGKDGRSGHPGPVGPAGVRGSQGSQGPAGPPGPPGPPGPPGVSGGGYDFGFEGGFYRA

B1: hrDecorin: human recombinant decorin sold by Catalent Pharma Solutions under the name Galacorin™ (protein, UniProt P07585 31-359, looked up)
Decorin: DEASGIGPEVPDDRDFEPSLGPVCPFRCQCHLRVVQCSDLGLDKVPKDLPPDTTLLDLQNNKITEIKDGDFKNLKNLHALILVNNKISKVSPGAFTPLVKLERLYLSKNQLKELPEKMPKTLQELRAHENEITKVRKVTFNGLNQMIVIELGTNPLKSSGIENGAFQGMKKLSYIRIADTNITSIPQGLPPSLTELHLDGNKISRVDAASLKGLNNLAKLGLSFNSISAVDNGSLANTPHLRELHLDNNKLTRVPGGLAEHKYIQVVYLHNNNISVVGSSDFCPPGHNTKKASYSGVSLFSNPVQYWEIQPSTFRCVYVRSAIQLGNYK
As to B1, the “effect on collagen fibrillogenesis (fibril formation)” value in series [1] (turbidity at 405 nm vs collagen only control) was “slowing the onset of fibrillogenesis”. Also, the “critical concentration above which fibrillogenesis is inhibited” value in series [1] (turbidity at 405 nm, 2 hours at 37° C.) was found to be 0.5 μg/ml. Also, the “concentration at which minimum turbidity is achieved” value in series [1] (turbidity at 405 nm, no further reduction above) was over 10000 ng/mL.

B2: Proteinase K: extracellular matrix remodelling agent proteinase K (protein, UniProt P06873 106-384, looked up)
Proteinase K: AAQTNAPWGLARISSTSPGTSTYYYDESAGQGSCVYVIDTGIEASHPEFEGRAQMVKTYYYSSRDGNGHGTHCAGTVGSRTYGVAKKTQLFGVKVLDDNGSGQYSTIIAGMDFVASDKNNRNCPKGVVASLSLGGGYSSSVNSAAARLQSSGVMVAVAAGNNNADARNYSPASEPSVCTVGASDRYDRRSSFSNYGSVLDIFGPGTSILSTWIGGSTRSISGTSMATPHVAGLAAYLMTLGKTTAASACRYIADTANKGDLSNIPFGTVNLLAYNNYQA
For the molecule B2, the “breakdown of fibrin gel” value with fibrin gel is reported as “faster”.

These data come from patent US20220362145A1, “THERAPEUTIC HYDROGEL COMPOSITIONS” (THE UNIVERSITY OF BIRMINGHAM, priority 2018, published 2022).
